Values belong to the binder of their own block, whether it stands above or below them.
What was measured:
[1] = target: T1, ROR1 on human cancer cell lines (HepG2, MDA231, HT-29, SKOV-3) (human, UniProt Q01973 30-937); experiment: flow cytometry (FACS) on cancer cell lines
T1 construct: whole, on cells; Endogenous ROR1 of tumour cell lines, not transfected cells; also called ROR1-positive cells; ROR1-expressing cell line SKOV-3
Text: Normal keratinocytes were used as a negative control (FIG. 4). (MFI: […] compared to the isotype).

[2] = target: T2, extracellular ROR1 protein (human, UniProt Q01973 30-406); experiment: ELISA
T2 construct: extracellular domain

[3] = target: T3, ROR1 extracellular domain fused to human Fc (hFc) protein (human, UniProt Q01973 30-406); experiment: Western blot, anti-ROR1 scFv-mouse Fc fusion as primary antibody, anti-mouse IgG-HRP as secondary
T3 construct: extracellular domain; also called ROR1-human Fc fusion protein; human ROR1 antigen; not shown: human Fc (hFc)
Text: In this example, we generated a mouse monoclonal anti-ROR1 antibody using standard hybridoma technology. The mouse anti-ROR1 antibody (IgG1 type) detected extracellular ROR1 protein by ELISA (data not shown). We sequenced this hybridoma clone 2H6 and generated an scFv using VH and VL (see further in Example 2). […] The ROR1-human Fc fusion protein was detected with an antibody directed against the human Fc domain.

T2 sequence (Q01973 30-406): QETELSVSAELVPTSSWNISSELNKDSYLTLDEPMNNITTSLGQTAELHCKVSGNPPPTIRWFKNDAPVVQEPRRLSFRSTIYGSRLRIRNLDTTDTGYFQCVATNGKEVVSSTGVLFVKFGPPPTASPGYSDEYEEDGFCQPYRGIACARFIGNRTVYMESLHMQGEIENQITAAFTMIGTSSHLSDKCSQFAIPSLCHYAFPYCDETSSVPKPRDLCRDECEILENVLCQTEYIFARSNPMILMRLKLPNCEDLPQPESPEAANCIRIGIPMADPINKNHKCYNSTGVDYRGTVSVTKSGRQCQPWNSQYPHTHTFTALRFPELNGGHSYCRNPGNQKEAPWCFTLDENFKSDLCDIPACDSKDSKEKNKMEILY
T3 sequence (Q01973 30-406): as above
T1 sequence (Q01973 30-937): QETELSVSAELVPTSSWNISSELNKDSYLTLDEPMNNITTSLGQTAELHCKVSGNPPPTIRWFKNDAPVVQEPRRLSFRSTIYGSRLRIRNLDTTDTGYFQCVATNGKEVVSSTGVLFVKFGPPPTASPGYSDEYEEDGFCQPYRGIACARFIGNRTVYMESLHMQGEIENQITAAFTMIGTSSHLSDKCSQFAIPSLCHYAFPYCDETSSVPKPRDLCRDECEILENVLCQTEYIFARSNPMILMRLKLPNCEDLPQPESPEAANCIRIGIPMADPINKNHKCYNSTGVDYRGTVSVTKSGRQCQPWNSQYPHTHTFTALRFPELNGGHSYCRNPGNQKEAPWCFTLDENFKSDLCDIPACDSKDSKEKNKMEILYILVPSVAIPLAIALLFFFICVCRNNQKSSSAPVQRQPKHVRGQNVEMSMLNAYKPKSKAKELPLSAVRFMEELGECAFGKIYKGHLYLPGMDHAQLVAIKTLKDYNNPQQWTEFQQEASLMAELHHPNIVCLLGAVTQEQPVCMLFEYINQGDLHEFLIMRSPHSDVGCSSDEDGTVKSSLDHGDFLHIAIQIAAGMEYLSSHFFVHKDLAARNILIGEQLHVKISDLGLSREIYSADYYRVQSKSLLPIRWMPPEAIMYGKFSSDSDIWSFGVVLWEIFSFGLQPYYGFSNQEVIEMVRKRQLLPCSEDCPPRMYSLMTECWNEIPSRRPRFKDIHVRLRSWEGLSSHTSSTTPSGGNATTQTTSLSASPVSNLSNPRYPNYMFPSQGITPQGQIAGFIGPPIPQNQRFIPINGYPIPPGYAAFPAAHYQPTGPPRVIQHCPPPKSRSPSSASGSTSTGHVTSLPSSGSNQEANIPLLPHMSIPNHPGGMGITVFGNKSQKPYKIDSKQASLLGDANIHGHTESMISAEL

binding result [1]: binds | binding result [2]: binds
B1: mouse monoclonal anti-ROR1 antibody, hybridoma clone 2H6 (antibody, V domains shown)
VH: VKLVESGGGLVKPGGSLKLSCAASGFTFSTYAMSWVRQTPEKRLEWVASISSGGNTYYPDSVKGRFTISRDNARHILYLQMSSLRSEDTAMYYCARDSYYFGNSVYYAMDYWGQGTSVTVSS
VL: DIKMTQSPSSMYASLGERVTITCKASQDINSYFSWFQQKPGKSPKTLIYRANRLVDGVPSRFSGSGSGQDYSLTISSLEYEDMGIYYCLQYDEFPYTFGGGTKLEIKR
notes: Hybridoma antibody, mouse IgG1 type; also called mouse anti-ROR1 antibody (IgG1 type); mouse anti-ROR1 monoclonal antibody

binding result [3]: binds
B2: anti-ROR1 scFv-mouse Fc fusion (scFv of clone 2H6) (Fc fusion)
scFv: VKLVESGGGLVKPGGSLKLSCAASGFTFSTYAMSWVRQTPEKRLEWVASISSGGNTYYPDSVKGRFTISRDNARHILYLQMSSLRSEDTAMYYCARDSYYFGNSVYYAMDYWGQGTSVTVSSGGGGSGGGGSGGGGSDIKMTQSPSSMYASLGERVTITCKASQDINSYFSWFQQKPGKSPKTLIYRANRLVDGVPSRFSGSGSGQDYSLTISSLEYEDMGIYYCLQYDEFPYTFGGGTKLEIKR
notes: Used as the primary antibody in the Western blot. scFv is VH-(G4S)3-VL; The mouse Fc part is not described; also called anti-ROR1 scFv (mouse clone 2H6); not shown: mouse Fc

From patent US20230383009A1 (CARIBOU BIOSCIENCES, published 2023)
